Source: patent US20240100174A1, “PROTEIN-PEG INTERACTIONS THAT REDIRECT THE THERMAL UNFOLDING PATHWAY OF PEGYLATED HUMAN GALECTIN-3C” (UNIVERSITY OF FLORIDA RESEARCH FOUNDATION, INCORPORATED, priority 2022, published 2024)

What was measured:
[1] = Equilibrium binding of LacNac, intrinsic tryptophan fluorescence; details: ligand LacNac; average ± standard deviation of 3 replicated experiments; PBS; read-out: Kd (equilibrium binding constant)
Description: (§1) Equilibrium binding data were recorded using a protocol adapted from a previous procedure from Restuccia, et al (38). Intrinsic tryptophan fluorescence was monitored using a Cary Eclipse™ Fluorescence Spectrophotometer (Agilent) operating with Cary Eclipse™ WinFLR software version 1.2 in ‘Scan Mode’. The instrument method parameters were as follows: excitation wavelength was 280 nm, the acquisition range was from 290 nm to 440 nm and the photomultiplier tube sensitivity was set to ‘medium’. Samples were prepared at final concentrations of 1 μM for Gal3C[T243C] or 5 μM Gal3C[T243C]-PEG in 800 ∥L, in PBS for each titration. Samples were pipetted into 0.7×0.7 cm quartz cuvettes with a micro stir bar. Each new experiment was first zeroed against PBS to remove the small background signal from the buffer. […]
The binding affinity and specificity of Gal3C[T243C]-PEG was compared with Gal3C[T243C] and Gal3C (see FIG. 1C, FIG. 9 and FIG. 10) via an inherent tryptophan fluorescence assay optimized to ensure equilibrium binding conditions. Binding of lactose or LacNac quenches the fluorescence of W181, located adjacent to the bound sugar in the crystal structure of Gal3C, thus permitting direct measurement of ligand Kd values. […]

[2] = Equilibrium binding of lactose, intrinsic tryptophan fluorescence; details: ligand lactose; average ± standard deviation of 3 replicated experiments; PBS; read-out: Kd (equilibrium binding constant)
Description: as §1
The binding affinity and specificity of Gal3C[T243C]-PEG was compared with Gal3C[T243C] and Gal3C (see FIG. 1C, FIG. 9 and FIG. 10) via an inherent tryptophan fluorescence assay optimized to ensure equilibrium binding conditions. Binding of lactose or LacNac quenches the fluorescence of W181, located adjacent to the bound sugar in the crystal structure of Gal3C, thus permitting direct measurement of ligand Kd values.

[3] = Rotational correlation time from 15N T1/T2 NMR relaxation; type: physicochemical; details: 30° C.; error is 95% confidence interval
Description: NMR data were recorded for temperatures between 30° C. and 55° C., as noted in the main text, with a Broker Avance™ III spectrometer operating at 800 MHz, running Topspin™ version 3.6.3 and equipped with a 5 mm TXI cryoprobe. The temperature was calibrated using a standard sample of 4% methanol in d4-MeOH. 2D [^15N, ^1H]-HSQC spectra were recorded using a gradient sensitivity-enhanced pulse sequence (hsqcetf3gpsi) with 2048 points in the direct dimension, between 180 to 260 points in the indirect dimension and between 32 to 736 scans per experiment, depending on the final sample concentration to achieve similar signal-to-noise ratios for all data. The ^15N T1 and T2 relaxation measurements were acquired with 1D ^15N-edited HSQC-based experiments (hsqct1etf3gpsi3d and hsqct2etf3gpsi3d) with 2048 points and 512 scans per experiment. For T1 measurements, experiments were recorded with relaxation delays of 0.02, 0.05, 0.1, 0.2, 0.3, 0.4, 0.6, 0.8,1, 1.2 or 1.5 s. […]
The rotational correlation times τc of Gal3C[T243C] and Gal3C[T243C]-PEG was then determined from T1 and T2 using the following spectral density function (j(ω)) equations […]
To investigate whether PEG and Gal3C[T243C] behaved more as two independent domains within the conjugated protein or if they interacted more closely, the rotational correlation times (τc) for Gal3C[T243C] and Gal3C[T243C]-PEG at 30° C. were determined. […]

Kd [1]: 230 ± 56.5 µM | Kd [2]: 413 ± 102 µM
B1: Gal3C[T243C]: Gal3C variant with a single extrinsic cysteine at position 243; SEQ ID NO: 11 (protein)
chain: MAGPLIVPYNLPLPGGVVPRMLITILGTVKPNANRIALDFQRGNDVAFHFNPRFNENNRRVIVCNTKLDNNWGREERQSVFPFESGKPFKIQVLVEPDHFKVAVNDAHLLQYNHRVKKLNEISKLGISGDIDLTSASYCMILEHHHHHH
rotational correlation time (τc) [3]: 10.7 (±0.7) ns
